The source of these data is publication PMC10397247.

What all share (assay): two-hybrid library CCNG1;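 note: natural log of median RNA to DNA barcode read ratio; higher means stronger binding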
Experiment [1] deals with T1, 4H908-bA.
T1 chain: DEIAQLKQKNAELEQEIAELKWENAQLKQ

In experiment [2] the target is T2, 4H967-bA.
T2 chain: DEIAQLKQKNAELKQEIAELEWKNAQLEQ

Experiment [3] deals with T3, 4H918-bA.
T3 chain: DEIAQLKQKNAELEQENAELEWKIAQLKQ

The target of experiment [4] is T4, 4H953-bA.
T4 chain: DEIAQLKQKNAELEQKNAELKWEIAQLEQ

In experiment [5] the target is T5, P11A-bN.
T5 chain: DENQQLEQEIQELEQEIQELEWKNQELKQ

For experiment [6], the target named is T6, 4H883-bH.
T6 chain: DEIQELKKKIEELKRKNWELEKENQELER

In experiment [7] the target is T7, 4H3843-bH.
T7 chain: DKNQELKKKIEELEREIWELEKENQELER

Experiment [8] has as its target T8, 4H3782-bH.
T8 chain: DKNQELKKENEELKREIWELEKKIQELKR

In experiment [9] the target is T9, 4H370-bH.
T9 chain: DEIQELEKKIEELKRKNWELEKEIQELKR

Experiment [10] has as its target T10, 4H3189-bH.
T10 chain: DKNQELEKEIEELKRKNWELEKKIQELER

In experiment [11] the target is T11, 4H953-bH.
T11 chain: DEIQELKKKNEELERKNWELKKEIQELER

Experiment [12] deals with T12, 4H607-bH.
T12 chain: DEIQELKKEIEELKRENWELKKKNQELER

The target in experiment [13] is T13, 4H2697-bH.
T13 chain: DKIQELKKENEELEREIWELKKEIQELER

Experiment [14] has as its target T14, 4H1845-bH.
T14 chain: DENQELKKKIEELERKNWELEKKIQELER

Experiment [15] addresses T15, 4H2667-bH.
T15 chain: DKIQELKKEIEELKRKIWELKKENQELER

Experiment [16] addresses T16, 4H2576-bH.
T16 chain: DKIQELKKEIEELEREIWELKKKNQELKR

The target in experiment [17] is T17, 4H568-bH.
T17 chain: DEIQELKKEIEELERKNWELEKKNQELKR

Experiment [18] concerns the target T18, 4H1446-bH.
T18 chain: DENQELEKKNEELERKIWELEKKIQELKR

For experiment [19], the target named is T19, 4H1369-bH.
T19 chain: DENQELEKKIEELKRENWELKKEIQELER

Experiment [20] addresses T20, 4H687-bH.
T20 chain: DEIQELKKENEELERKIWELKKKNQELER

Experiment [21] has as its target T21, 4H2610-bH.
T21 chain: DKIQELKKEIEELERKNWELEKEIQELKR

The target in experiment [22] is T22, O9-bN.
T22 chain: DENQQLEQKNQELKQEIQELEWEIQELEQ

Experiment [23] concerns the target T23, 4H331-bH.
T23 chain: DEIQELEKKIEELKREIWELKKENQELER

Experiment [24] has as its target T24, 4H3606-bH.
T24 chain: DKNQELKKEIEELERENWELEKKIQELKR

The target of experiment [25] is T25, 4H4001-bH.
T25 chain: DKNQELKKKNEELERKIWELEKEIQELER

The target of experiment [26] is T26, 4H967-bH.
T26 chain: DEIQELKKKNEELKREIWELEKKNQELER

In experiment [27] the target is T27, 4H462-bH.
T27 chain: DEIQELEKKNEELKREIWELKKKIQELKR

For experiment [28], the target named is T28, 4H797-bH.
T28 chain: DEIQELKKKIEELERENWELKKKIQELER

The target in experiment [29] is T29, 4H918-bH.
T29 chain: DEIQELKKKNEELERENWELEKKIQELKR

The target of experiment [30] is T30, 4H72-bH.
T30 chain: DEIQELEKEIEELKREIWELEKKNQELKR

Experiment [31] concerns the target T31, 4H855-bA.
T31 chain: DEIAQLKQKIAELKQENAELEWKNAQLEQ

The target in experiment [32] is T32, 4H2627-bA.
T32 chain: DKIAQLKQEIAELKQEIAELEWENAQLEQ

For experiment [33], the target named is T33, 4H346-bA.
T33 chain: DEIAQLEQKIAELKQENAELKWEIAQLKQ

Experiment [34] addresses T34, 4H3427-bA.
T34 chain: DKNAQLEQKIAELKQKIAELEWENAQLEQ

In experiment [35] the target is T35, 4H2673-bA.
T35 chain: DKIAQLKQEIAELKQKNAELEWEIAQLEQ

For experiment [36], the target named is T36, 4H1158-bA.
T36 chain: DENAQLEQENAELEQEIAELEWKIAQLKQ

Experiment [37] addresses T37, 4H2586-bA.
T37 chain: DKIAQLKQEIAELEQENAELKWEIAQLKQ

The target of experiment [38] is T38, 4H968-bA.
T38 chain: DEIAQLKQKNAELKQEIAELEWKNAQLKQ

Experiment [39] deals with T39, 4H118-bA.
T39 chain: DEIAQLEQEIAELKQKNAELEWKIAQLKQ

The target of experiment [40] is T40, 4H3926-bA.
T40 chain: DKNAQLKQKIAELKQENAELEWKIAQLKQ

Experiment [41] addresses T41, 4H4073-bA.
T41 chain: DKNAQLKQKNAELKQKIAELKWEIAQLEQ

Experiment [42] deals with T42, 4H2253-bA.
T42 chain: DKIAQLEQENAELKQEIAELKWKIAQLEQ

Experiment [43] addresses T43, 4H754-bA.
T43 chain: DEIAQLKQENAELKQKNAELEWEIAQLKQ

The target of experiment [44] is T44, 4H575-bA.
T44 chain: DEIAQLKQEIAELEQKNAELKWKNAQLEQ

The target of experiment [45] is T45, 4H3112-bA.
T45 chain: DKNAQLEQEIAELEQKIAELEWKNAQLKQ

Experiment [46] has as its target T46, 4H2702-bA.
T46 chain: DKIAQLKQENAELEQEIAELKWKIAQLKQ

Experiment [47] concerns the target T47, 4H797-bA.
T47 chain: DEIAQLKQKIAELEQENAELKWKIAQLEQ

In experiment [48] the target is T48, 4H170-bA.
T48 chain: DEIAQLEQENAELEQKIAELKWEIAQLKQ

Experiment [49] deals with T49, 4H683-bA.
T49 chain: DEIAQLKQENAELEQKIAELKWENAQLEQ

Experiment [50] concerns the target T50, 4H3010-bA.
T50 chain: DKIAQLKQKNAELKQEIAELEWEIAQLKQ

For experiment [51], the target named is T51, 4H780-bA.
T51 chain: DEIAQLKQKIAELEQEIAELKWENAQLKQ

Experiment [52] has as its target T52, 4H1831-bA.
T52 chain: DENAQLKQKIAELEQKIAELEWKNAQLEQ

For experiment [53], the target named is T53, 4H457-bA.
T53 chain: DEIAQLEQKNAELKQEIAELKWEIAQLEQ

B1: 4H908-bA (peptide)
chain: DEIAQLKQKNAELEQEIAELKWENAQLKQ
B1: the interaction score in [1] was 0.539; in experiment [2] it was -0.532; in [3], 0.429; in [4] it was -0.801; in [5], 1.22.

B2: 4H1369-bH (peptide)
chain: DENQELEKKIEELKRENWELKKEIQELER
Consider B2, for which the interaction score in experiment [6] is -0.565; in [7], -0.198; in experiment [8] it was -0.489; in [9], -1.73; in experiment [10], -0.572; in experiment [11] it was -0.636. Besides, the interaction score in experiment [12] is -0.13; in experiment [13], -0.653; in [14] it was -0.792; in experiment [15] it was -0.433; in [16] it was -0.848; in [17], -1.94. The interaction score in experiment [18] was -1.19; in experiment [19], -0.455; in experiment [20], 0.994; in experiment [21] it was 0.178; in experiment [22], -3.43; in experiment [23] it was -0.491. Also, the interaction score in experiment [24] was 1.14; in experiment [25], -0.331; in experiment [26], -0.723; in [27] it was -1.88; in experiment [28] it was -0.464; in experiment [29], -1.26. In experiment [30], this molecule came in with an interaction score of -1.58.

B3: 4H1158-bA (peptide)
chain: DENAQLEQENAELEQEIAELEWKIAQLKQ
Turning to B3, the interaction score is 0.0299 in experiment [31]; 1.15 in [32]; -0.31 in experiment [33]; 0.681 in [34]; -0.0392 in experiment [35]; -0.559 in experiment [36]. The interaction score in experiment [37] is -0.706; in experiment [38] it was 0.0766; in experiment [3] it was -0.069; in experiment [39], 0.591; in experiment [40], 0.769; in experiment [41], 2.53. The interaction score in experiment [42] is 0.12; in [4], -0.12; in experiment [43], -0.283; in experiment [44] it was 0.324; in experiment [45], -0.0196; in experiment [46] it was 0.584. Further, the interaction score in [47] is 0; in experiment [48] it was -1.67; in experiment [49], -1.19; in experiment [50], 2.11; in experiment [51], 0.459; in experiment [52] it was 0.132. The molecule further yielded an interaction score in experiment [53] of 1.02.

B4: 4H1328-bH (peptide)
chain: DENQELEKKIEELERKIWELKKKNQELKR
With B4, the interaction score in experiment [6] is 0.137; in [7], 1.38; in [8], 0.448; in experiment [9], -0.934; in experiment [10], -0.241; in experiment [11] it was -0.534. In addition, the interaction score in experiment [12] is -1.86; in experiment [13] it was 0.213; in experiment [14], -0.384; in experiment [15], -0.993; in experiment [16] it was 1.67; in experiment [17], 0.634. For the same molecule, the interaction score in experiment [18] was 0.331; in experiment [19], -1.31; in [20] it was -1.73; in [21], 0.958; in [23], 1.28; in [24] it was 0.235. The interaction score in experiment [25] is 1.01; in [26], -1.62; in [27], 0; in experiment [28], 0.552; in experiment [29] it was -0.116; in experiment [30], 0.492.
